The supplement of paper PMC9170038

Test system: MS2 coat protein
Assay: apparent KD of MS2 coat protein; designed switch direction (-1 OFF switch, 1 ON switch): -1; higher = weaker reporter binding
In short: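 The buffer was Tris-HCl pH 7.5 with KCl, MgCl2, BSA, DTT, tRNA and Tween-20. In it, SNAP-549-labelled MS2 coat protein was titrated in doubling steps from 0.7 or 1.5 nM to 3 µM over chip-bound RNA switches transcribed by stalled E. coli RNA polymerase on Illumina chips. Apparent KD is the per-design median over clusters of curve fits to normalised fluorescence.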

[1] = Eterna round: R95, input ligand: microRNA oligo, concentration not stated

| Sequence | apparent KD of MS2 coat protein (input ligand: FMN 200 uM) | apparent KD of MS2 coat protein (input ligand: none) | apparent KD of MS2 coat protein (input ligand: microRNA oligo, concentration not stated) | apparent KD of MS2 coat protein [1] |
| --- | --- | --- | --- | --- |
| GGAUCGAGUGUGAGGAUAUGCUGGUCCUUGGAUCAGCAGAAGGCACAUGAGGAUCACCCAUGUGAAGACGAUCC [Eli bmx4 4.55] (Eterna round: R97, puzzle: Brourd's mod of Exclusion 4) | 340 nM | 40.1 nM | – | – |
| GGAUCGAGUGUGAGGAUAUGCUGGUCCUUGGAUCAGCAGAAGGCACAUGAGGAUCACCCAUGUGAAGACGAUCC [Mat - Exclusion 4 - JL Mod - D73] (Eterna round: R96, puzzle: Brourd's mod of Exclusion 4) | 230 nM | 28.7 nM | 23.1 nM | – |
| GGAUCGAGUGUGAGGAUAUGCUGGUCCUUGGAUCAGCAGAAGGCACAUGAGGAUCACCCAUGUGAAGACGAUCC [Mat - Exclusion 4 - JL Mod - D73] (puzzle: Brourd's mod of Exclusion 4) | – | – | – | 21.2 nM |
| GGAUCGUAUGUCAGGAUAUGCCACUGGAUACAGUGGUAGAAGGGACAUGAGGAUCACCCAUGUCCUACCGAUCC [Fiskers BMX 4 - 50] (puzzle: Brourd's mod of Exclusion 4) | – | – | – | 12.4 nM |
| GGAUUACAUGAGGAUCACCCAUGUCAGGAUAUGAAAGCAUAUGCCGAAAGGCAUAUGCGCAGAAGGGACAAUAU [AK-MS2ROC-r4-exclusion1-3.0] (Eterna round: R97, puzzle: Exclusion 1) | 45.7 nM | 27.5 nM | – | – |
| GGAUUUCCUGAGGAUAUUGCAUCACCCGAUUUAUAAGAAGGCAGAACAUGAGGAUCACCCAUGUGGGUCUCCAG [Bingo-Bango-24] (Eterna round: R97, puzzle: Exclusion 6) | 22.9 nM | 17.9 nM | – | – |
| GGCAAUAACGAGGAUAUCGUAUCGGAAACGAUACGAGAAGGUGUAACAUGAGGAUCACCCAUGUUCCUCAAGCC [Fiskers Ex 6 - 8] (puzzle: Exclusion 6) | – | – | – | 33.9 nM |
| GGCACACAUGAGGAUCACCCAUGUGAGGAUAUGAGGCGAUCGUCGAUAGACGAUAGCCUUAGAAGGCACAUGCC [Mat - Exclusion 1 - Eli Mod - D11] (Eterna round: R97, puzzle: Exclusion 1) | 45.2 nM | 21.2 nM | – | – |
| GGCACCGUAGGAUAUUGUGGUGCAGACAUGAGGAUCACCCAUGUUGAUCCGGGACUGCAGCGAGAAGGACGGGAAA [Eternabot (Original) Solution 2] (Eterna round: R97, puzzle: Exclusion 5) | 284 nM | 344 nM | – | – |
| GGCAGACAUGAGGAUCACCCAUGUCAGGAUAUGGUGCGAUCGUCGAAAGACGAUAGCACCAGAAGGGACAUGCC [Eli x1 4.03] (Eterna round: R97, puzzle: Exclusion 1) | 30.5 nM | 19.1 nM | – | – |
| GGCAGACAUGAGGAUCACCCAUGUCAGGAUAUGUGGCGAUCGUCGAAAGACGAUAGCCACAGAAGGGACAUGCC [Eli x1 4.20] (Eterna round: R97, puzzle: Exclusion 1) | 40.7 nM | 22.4 nM | – | – |
| GGCAGGCUAGAGGAUAUGCAUUGGCUUGGCCAAGCAGAAGGCUAGACAUGAGGAUCACCCAUGUGUUCCUUGUG [jl-ex6-4.36 ViennaUCT mod] (Eterna round: R97, puzzle: Exclusion 6) | 83.5 nM | 93.6 nM | – | – |
| GGCAGUCGAGGAUAUACGAUCGUGCUUCGGCACGUAAGAUCACAUGAGGAUCACCCAUGUAGAAGGCGACUGCC [Mod 2 - Jieux - Exclusion 2] (Eterna round: R97, puzzle: Exclusion 2) | 214 nM | 33.4 nM | – | – |
